Assay results published in US20140274782A1, “AFFINITY REAGENTS AND METHODS FOR DETECTION, PURIFICATION, AND PROTEOMIC ANALYSIS OF METHYLATED PROTEINS” (The Board of Trustees of the Leland Stanford Junior …, priority 2013, published 2014).
Each block holds one molecule with its values, some of them ahead of it.

Tests used:
[1] = tested on: 3×MBT domain of L3MBTL1; experiment: Triple SILAC pull-down, 3xMBT/3xMBTD355N ratio (cytoplasmic, nuclear and chromatin fractions of 293T cells); type: binding, human; conditions: for 3xMBT/D355N UNC Heavy: experiment with UNC0638 in heavy SILAC media; for 3xMBT/D355N UNC Light: experiment with UNC0638 in light SILAC media;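 for all read-outs here: proteins quantified with MaxQuant, requiring at least two unique peptides and quantification in both label directions, normalized to the mean of proteins from a digested loading control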
[2] = molecular target: T1, G9a and GLP (Homo sapiens, UniProt Q96KQ7+Q9H9B1); experiment: Triple SILAC pull-down after UNC0638 treatment of 293T cells, DMSO/UNC0638 ratio of protein captured by 3×MBT; type: cell-based; parameters: cells were treated for 24 hours with UNC0638 at 2.5 μM or DMSO vehicle control; endogenous in cells; host or cells: HEK 293T; conditions: for Relative to UNC0638 UNC Heavy: UNC0638 in heavy SILAC media; for Relative to UNC0638 UNC Light: UNC0638 in light SILAC media; for Relative to UNC0638 Average: average of UNC Light and UNC Heavy experiments;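 for all read-outs here: mass spectrometry (Q-Exactive) SILAC quantitation, DMSO/UNC0638 ratio computed after subtracting 3×MBTD355N mutant pull-down background, only proteins with at least twofold 3×MBT over mutant signal considered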
T1 sequence (Q96KQ7 2-1210 limits assumed): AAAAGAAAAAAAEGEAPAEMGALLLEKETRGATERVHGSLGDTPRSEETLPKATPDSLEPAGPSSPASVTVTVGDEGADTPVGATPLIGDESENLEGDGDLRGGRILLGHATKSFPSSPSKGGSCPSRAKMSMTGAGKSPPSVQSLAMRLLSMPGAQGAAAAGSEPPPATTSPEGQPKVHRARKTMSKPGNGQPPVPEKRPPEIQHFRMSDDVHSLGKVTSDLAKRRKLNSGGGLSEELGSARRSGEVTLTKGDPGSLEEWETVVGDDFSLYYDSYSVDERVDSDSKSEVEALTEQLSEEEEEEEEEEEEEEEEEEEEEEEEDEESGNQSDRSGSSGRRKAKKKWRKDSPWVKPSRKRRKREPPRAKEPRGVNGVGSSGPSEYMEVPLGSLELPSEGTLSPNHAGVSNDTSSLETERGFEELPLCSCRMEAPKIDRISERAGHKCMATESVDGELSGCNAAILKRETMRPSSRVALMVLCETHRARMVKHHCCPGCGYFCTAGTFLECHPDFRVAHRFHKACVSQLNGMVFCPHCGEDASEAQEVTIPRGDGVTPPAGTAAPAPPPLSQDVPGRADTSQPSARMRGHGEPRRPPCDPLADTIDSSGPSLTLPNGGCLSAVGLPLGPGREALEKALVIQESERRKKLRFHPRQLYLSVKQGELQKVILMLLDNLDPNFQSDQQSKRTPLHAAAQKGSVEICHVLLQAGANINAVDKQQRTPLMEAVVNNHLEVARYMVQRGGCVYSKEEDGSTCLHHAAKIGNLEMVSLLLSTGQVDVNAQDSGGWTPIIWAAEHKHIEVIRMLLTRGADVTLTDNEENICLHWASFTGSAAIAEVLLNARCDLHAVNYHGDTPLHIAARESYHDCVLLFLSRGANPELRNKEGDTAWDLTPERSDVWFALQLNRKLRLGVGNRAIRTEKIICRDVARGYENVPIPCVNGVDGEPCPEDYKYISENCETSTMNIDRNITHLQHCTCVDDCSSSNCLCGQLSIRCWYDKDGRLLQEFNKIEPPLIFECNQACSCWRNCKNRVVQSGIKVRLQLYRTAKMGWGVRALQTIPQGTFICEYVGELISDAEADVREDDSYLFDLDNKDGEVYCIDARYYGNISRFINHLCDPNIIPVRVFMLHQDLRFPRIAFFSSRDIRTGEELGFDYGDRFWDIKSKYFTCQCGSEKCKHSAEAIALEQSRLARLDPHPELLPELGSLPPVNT
T1 sequence (Q9H9B1 2-1298 limits assumed): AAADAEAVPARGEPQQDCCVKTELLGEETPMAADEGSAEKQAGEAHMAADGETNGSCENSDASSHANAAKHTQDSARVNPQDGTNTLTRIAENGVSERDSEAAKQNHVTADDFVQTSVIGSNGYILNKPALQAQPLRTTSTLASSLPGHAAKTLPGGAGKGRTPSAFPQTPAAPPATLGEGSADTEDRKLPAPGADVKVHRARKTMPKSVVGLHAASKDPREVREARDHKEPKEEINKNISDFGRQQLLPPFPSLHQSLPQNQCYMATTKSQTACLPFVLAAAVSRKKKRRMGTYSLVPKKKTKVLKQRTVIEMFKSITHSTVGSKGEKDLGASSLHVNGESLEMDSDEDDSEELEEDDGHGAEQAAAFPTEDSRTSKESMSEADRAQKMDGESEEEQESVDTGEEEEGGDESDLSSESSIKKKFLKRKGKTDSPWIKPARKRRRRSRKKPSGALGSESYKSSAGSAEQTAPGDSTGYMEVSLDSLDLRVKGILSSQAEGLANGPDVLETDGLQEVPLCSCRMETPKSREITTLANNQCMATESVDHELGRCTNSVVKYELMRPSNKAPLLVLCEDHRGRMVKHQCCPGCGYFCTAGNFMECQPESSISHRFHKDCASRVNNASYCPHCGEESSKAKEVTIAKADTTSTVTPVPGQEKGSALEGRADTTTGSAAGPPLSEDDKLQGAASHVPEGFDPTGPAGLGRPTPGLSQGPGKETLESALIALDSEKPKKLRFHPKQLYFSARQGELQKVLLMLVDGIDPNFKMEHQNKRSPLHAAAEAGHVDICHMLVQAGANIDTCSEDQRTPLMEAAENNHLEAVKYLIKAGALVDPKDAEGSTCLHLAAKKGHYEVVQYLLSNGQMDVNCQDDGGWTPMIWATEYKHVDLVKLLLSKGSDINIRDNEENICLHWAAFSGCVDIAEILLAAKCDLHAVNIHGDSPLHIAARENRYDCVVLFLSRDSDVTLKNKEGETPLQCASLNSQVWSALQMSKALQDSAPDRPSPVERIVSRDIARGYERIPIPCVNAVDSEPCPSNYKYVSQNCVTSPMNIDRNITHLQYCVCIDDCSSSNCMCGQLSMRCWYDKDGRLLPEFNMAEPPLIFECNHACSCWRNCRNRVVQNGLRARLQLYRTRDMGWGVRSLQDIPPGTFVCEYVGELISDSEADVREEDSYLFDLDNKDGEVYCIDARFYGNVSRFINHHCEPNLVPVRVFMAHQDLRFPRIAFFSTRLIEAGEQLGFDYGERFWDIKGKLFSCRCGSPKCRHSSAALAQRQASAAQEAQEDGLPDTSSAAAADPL

[3] = SILAC ratio 3xMBT vs 3xMBTD355N pull-down, 293T cells, all values in log base 2
[4] = SILAC ratio DMSO relative to UNC0638, pull-down with 3xMBT, all values in log base 2
[5] = SILAC ratio, pull-down 3xMBT vs 3xMBTD355N
[6] = SILAC ratio DMSO/UNC0638 of protein pulled down with 3xMBT

B1: MCM5 (protein, UniProt P33992 2-734, looked up)
DNA replication licensing …: SGFDDPGIFYSDSFGGDAQADEGQARKSQLQRRFKEFLRQYRVGTDRTGFTFKYRDELKRHYNLGEYWIEVEMEDLASFDEDLADYLYKQPAEHLQLLEEAAKEVADEVTRPRPSGEEVLQDIQVMLKSDASPSSIRSLKSDMMSHLVKIPGIIIAASAVRAKATRISIQCRSCRNTLTNIAMRPGLEGYALPRKCNTDQAGRPKCPLDPYFIMPDKCKCVDFQTLKLQELPDAVPHGEMPRHMQLYCDRYLCDKVVPGNRVTIMGIYSIKKFGLTTSRGRDRVGVGIRSSYIRVLGIQVDTDGSGRSFAGAVSPQEEEEFRRLAALPNVYEVISKSIAPSIFGGTDMKKAIACLLFGGSRKRLPDGLTRRGDINLLMLGDPGTAKSQLLKFVEKCSPIGVYTSGKGSSAAGLTASVMRDPSSRNFIMEGGAMVLADGGVVCIDEFDKMREDDRVAIHEAMEQQTISIAKAGITTTLNSRCSVLAAANSVFGRWDETKGEDNIDFMPTILSRFDMIFIVKDEHNEERDVMLAKHVITLHVSALTQTQAVEGEIDLAKLKKFIAYCRVKCGPRLSAEAAEKLKNRYIIMRSGARQHERDSDRRSSIPITVRQLEAIVRIAEALSKMKLQPFATEADVEEALRLFQVSTLDAALSGTLSGVEGFTSQEDQEMLSRIEKQLKRRFAIGSQVSEHSIIKDFTKQKYPEHAIHKVLQLMLRRGEIQHRMQRKVLYRLK
- 3xMBT/D355N UNC Heavy [1, 3]: 2.23 log base 2
- 3xMBT/D355N UNC Light [1, 3]: 2.79 log base 2
- Relative to UNC0638 UNC Heavy [2, 4]: 0.18 log base 2
- Relative to UNC0638 UNC Light [2, 4]: 0.03 log base 2
- Relative to UNC0638 Average ([2]; all values in log base 2): 0.10 log base 2

B3: GAPDHS (protein, UniProt O14556 1-408, looked up)
Glyceraldehyde-3-phosphate …: MSKRDIVLTNVTVVQLLRQPCPVTRAPPPPEPKAEVEPQPQPEPTPVREEIKPPPPPLPPHPATPPPKMVSVARELTVGINGFGRIGRLVLRACMEKGVKVVAVNDPFIDPEYMVYMFKYDSTHGRYKGSVEFRNGQLVVDNHEISVYQCKEPKQIPWRAVGSPYVVESTGVYLSIQAASDHISAGAQRVVISAPSPDAPMFVMGVNENDYNPGSMNIVSNASCTTNCLAPLAKVIHERFGIVEGLMTTVHSYTATQKTVDGPSRKAWRDGRGAHQNIIPASTGAAKAVTKVIPELKGKLTGMAFRVPTPDVSVVDLTCRLAQPAPYSAIKEAVKAAAKGPMAGILAYTEDEVVSTDFLGDTHSSIFDAKAGIALNDNFVKLISWYDNEYGYSHRVVDLLRYMFSRDK
- 3xMBT/D355N UNC Heavy [1, 5]: 3.31 log base 2
- 3xMBT/D355N UNC Light [1, 5]: 1.73 log base 2
- Relative to UNC0638 UNC Heavy [2, 6]: 3.21 log base 2
- Relative to UNC0638 UNC Light [2, 6]: −2.20 log base 2
- Relative to UNC0638 Average [2]: 0.50 log base 2

Continued, in another order:

- Relative to UNC0638 UNC Heavy [2, 4]: 0.22 log base 2
- Relative to UNC0638 UNC Light [2, 4]: −0.01 log base 2
- Relative to UNC0638 Average ([2]; all values in log base 2): 0.11 log base 2
B2: SEC23A (protein, UniProt Q15436 2-765, looked up)
Protein transport protein …: TTYLEFIQQNEERDGVRFSWNVWPSSRLEATRMVVPVAALFTPLKERPDLPPIQYEPVLCSRTTCRAVLNPLCQVDYRAKLWACNFCYQRNQFPPSYAGISELNQPAELLPQFSSIEYVVLRGPQMPLIFLYVVDTCMEDEDLQALKESMQMSLSLLPPTALVGLITFGRMVQVHELGCEGISKSYVFRGTKDLSAKQLQEMLGLSKVPLTQATRGPQVQQPPPSNRFLQPVQKIDMNLTDLLGELQRDPWPVPQGKRPLRSSGVALSIAVGLLECTFPNTGARIMMFIGGPATQGPGMVVGDELKTPIRSWHDIDKDNAKYVKKGTKHFEALANRAATTGHVIDIYACALDQTGLLEMKCCPNLTGGYMVMGDSFNTSLFKQTFQRVFTKDMHGQFKMGFGGTLEIKTSREIKISGAIGPCVSLNSKGPCVSENEIGTGGTCQWKICGLSPTTTLAIYFEVVNQHNAPIPQGGRGAIQFVTQYQHSSGQRRIRVTTIARNWADAQTQIQNIAASFDQEAAAILMARLAIYRAETEEGPDVLRWLDRQLIRLCQKFGEYHKDDPSSFRFSETFSLYPQFMFHLRRSSFLQVFNNSPDESSYYRHHFMRQDLTQSLIMIQPILYAYSFSGPPEPVLLDSSSILADRILLMDTFFQILIYHGETIAQWRKSGYQDMPEYENFRHLLQAPVDDAQEILHSRFPMPRYIDTEHGGSQARFLLSKVNPSQTHNNMYAWGQESGAPILTDDVSLQVFMDHLKKLAVSSAA
- 3xMBT/D355N UNC Heavy [1, 3]: 2.56 log base 2
- 3xMBT/D355N UNC Light [1, 3]: 3.17 log base 2

- Relative to UNC0638 UNC Heavy [2, 4]: 0.13 log base 2
- Relative to UNC0638 UNC Light [2, 4]: 0.07 log base 2
- Relative to UNC0638 Average ([2]; all values in log base 2): 0.10 log base 2
B4: PRMT3 (protein, UniProt O60678 2-531, looked up)
Protein arginine …: CSLASGATGGRGAVENEEDLPELSDSGDEAAWEDEDDADLPHGKQQTPCLFCNRLFTSAEETFSHCKSEHQFNIDSMVHKHGLEFYGYIKLINFIRLKNPTVEYMNSIYNPVPWEKEEYLKPVLEDDLLLQFDVEDLYEPVSVPFSYPNGLSENTSVVEKLKHMEARALSAEAALARAREDLQKMKQFAQDFVMHTDVRTCSSSTSVIADLQEDEDGVYFSSYGHYGIHEEMLKDKIRTESYRDFIYQNPHIFKDKVVLDVGCGTGILSMFAAKAGAKKVLGVDQSEILYQAMDIIRLNKLEDTITLIKGKIEEVHLPVEKVDVIISEWMGYFLLFESMLDSVLYAKNKYLAKGGSVYPDICTISLVAVSDVNKHADRIAFWDDVYGFKMSCMKKAVIPEAVVEVLDPKTLISEPCGIKHIDCHTTSISDLEFSSDFTLKITRTSMCTAIAGYFDIYFEKNCHNRVVFSTGPQSTKTHWKQTVFLLEKPFSVKAGEALKGKVTVHKNKKDPRSLTVTLTLNNSTQTYGLQ
- 3xMBT/D355N UNC Heavy [1, 3]: 1.71 log base 2
- 3xMBT/D355N UNC Light [1, 3]: 2.05 log base 2
